# Laboratory results: US20110251126A1, “INTESTINAL TREATMENT” (priority 2008, published 2011)
# Square brackets hold non-standard residues; d marks the D form. Ends that are not written are not given here. Nle = CCCC[C@H](N)C(=O)O
# B1: [Ala30]hPP (peptide)
# peptide: APLEPVYPGDNATPEQMAQYAADLRRYINALTRPRY
# modifications: ends and bridges not checked
# B2: [Ala30]hPP3-36 (peptide)
# peptide: LEPVYPGDNATPEQMAQYAADLRRYINALTRPRY
# modifications: ends and bridges not checked
# B3: [Thr30]hPP2-36 (peptide)
# peptide: PLEPVYPGDNATPEQMAQYAADLRRYINTLTRPRY
# modifications: ends and bridges not checked
# B4: [Thr30]hPP (peptide)
# peptide: APLEPVYPGDNATPEQMAQYAADLRRYINTLTRPRY
# modifications: ends and bridges not checked
# B5: [Thr30]hPP3-36 (peptide)
# peptide: LEPVYPGDNATPEQMAQYAADLRRYINTLTRPRY
# modifications: ends and bridges not checked
# B6: [Asn30]hPP2-36 (peptide)
# peptide: PLEPVYPGDNATPEQMAQYAADLRRYINNLTRPRY
# modifications: ends and bridges not checked
# B7: [Asn30]hPP (peptide)
# peptide: APLEPVYPGDNATPEQMAQYAADLRRYINNLTRPRY
# modifications: ends and bridges not checked
# B8: [Asn30]hPP3-36 (peptide)
# peptide: LEPVYPGDNATPEQMAQYAADLRRYINNLTRPRY
# modifications: ends and bridges not checked
# B9: [Gln30]hPP2-36 (peptide)
# peptide: PLEPVYPGDNATPEQMAQYAADLRRYINQLTRPRY
# modifications: ends and bridges not checked
# B10: [Gln30]hPP (peptide)
# peptide: APLEPVYPGDNATPEQMAQYAADLRRYINQLTRPRY
# modifications: ends and bridges not checked
# B11: [Gln30]hPP3-36 (peptide)
# peptide: LEPVYPGDNATPEQMAQYAADLRRYINQLTRPRY
# modifications: ends and bridges not checked
# B12: hPP2-36 (peptide)
# peptide: PLEPVYPGDNATPEQMAQYAADLRRYINMLTRPRY-NH2
# B13: [Glu10]hPP2-36 (peptide)
# peptide: PLEPVYPGENATPEQMAQYAADLRRYINMLTRPRY
# modifications: ends and bridges not checked
# B14: [Glu10]hPP (peptide)
# peptide: APLEPVYPGENATPEQMAQYAADLRRYINMLTRPRY
# modifications: ends and bridges not checked
# B15: [Glu10]hPP3-36 (peptide)
# peptide: LEPVYPGENATPEQMAQYAADLRRYINMLTRPRY
# modifications: ends and bridges not checked
# B16: [Glu10,Leu17,Thr30]hPP2-36 (peptide)
# peptide: PLEPVYPGENATPEQLAQYAADLRRYINTLTRPRY
# modifications: ends and bridges not checked
# B17: [Glu10,Leu17,Thr30]hPP (peptide)
# peptide: APLEPVYPGENATPEQLAQYAADLRRYINTLTRPRY
# modifications: ends and bridges not checked
# B18: [Glu10,Leu17,Thr30]hPP3-36 (peptide)
# peptide: LEPVYPGENATPEQLAQYAADLRRYINTLTRPRY
# modifications: ends and bridges not checked
# B19: [Nle17,Nle30]hPP2-36 (peptide)
# peptide: PLEPVYPGDNATPEQXAQYAADLRRYINXLTRPRY
# modifications: norleucine (Nle) at positions 17 and 30, numbered on full-length hPP (SEQ ID No:3)
# B20: [Nle17,Nle30]hPP (peptide)
# peptide: APLEPVYPGDNATPEQXAQYAADLRRYINXLTRPRY
# modifications: norleucine (Nle) at positions 17 and 30
# B21: [Nle17,Nle30]hPP3-36 (peptide)
# peptide: LEPVYPGDNATPEQ[Nle]AQYAADLRRYIN[Nle]LTRPRY
# modifications: ends and bridges not checked
# B22: [Glu10,Nle17,Nle30]hPP2-36 (peptide)
# peptide: PLEPVYPGENATPEQXAQYAADLRRYINXLTRPRY
# modifications: norleucine (Nle) at positions 17 and 30, numbered on full-length hPP (SEQ ID No:3)
# B23: hPP3-36 (peptide)
# peptide: LEPVYPGDNATPEQMAQYAADLRRYINMLTRPRY-NH2
# B24: [Glu10,Nle17,Nle30]hPP (peptide)
# peptide: APLEPVYPGENATPEQXAQYAADLRRYINXLTRPRY
# modifications: norleucine (Nle) at positions 17 and 30
# B25: [Glu10,Nle17,Nle30]hPP3-36 (peptide)
# peptide: LEPVYPGENATPEQ[Nle]AQYAADLRRYIN[Nle]LTRPRY
# modifications: ends and bridges not checked
# B26: [Leu17; Thr30]hPP2-36 (peptide)
# peptide: PLEPVYPGDNATPEQLAQYAADLRRYINTLTRPRY
# modifications: ends and bridges not checked
# B27: [Leu17; Thr30]hPP (peptide)
# peptide: APLEPVYPGDNATPEQLAQYAADLRRYINTLTRPRY
# modifications: ends and bridges not checked
# B28: [Leu17; Thr30]hPP3-36 (peptide)
# peptide: LEPVYPGDNATPEQLAQYAADLRRYINTLTRPRY
# modifications: ends and bridges not checked
# B29: [Leu17; Ser30]hPP2-36 (peptide)
# peptide: PLEPVYPGDNATPEQLAQYAADLRRYINSLTRPRY
# modifications: ends and bridges not checked
# B30: [Leu17; Ser30]hPP (peptide)
# peptide: APLEPVYPGDNATPEQLAQYAADLRRYINSLTRPRY
# modifications: ends and bridges not checked
# B31: [Leu17; Ser30]hPP3-36 (peptide)
# peptide: LEPVYPGDNATPEQLAQYAADLRRYINSLTRPRY
# modifications: ends and bridges not checked
# B32: [Ala30]hPP2-36 (peptide)
# peptide: PLEPVYPGDNATPEQMAQYAADLRRYINALTRPRY
# modifications: ends and bridges not checked
# Biological target: human Y4 receptor (human, UniProt P50391 1-375)
# Sequence (P50391 whole entry): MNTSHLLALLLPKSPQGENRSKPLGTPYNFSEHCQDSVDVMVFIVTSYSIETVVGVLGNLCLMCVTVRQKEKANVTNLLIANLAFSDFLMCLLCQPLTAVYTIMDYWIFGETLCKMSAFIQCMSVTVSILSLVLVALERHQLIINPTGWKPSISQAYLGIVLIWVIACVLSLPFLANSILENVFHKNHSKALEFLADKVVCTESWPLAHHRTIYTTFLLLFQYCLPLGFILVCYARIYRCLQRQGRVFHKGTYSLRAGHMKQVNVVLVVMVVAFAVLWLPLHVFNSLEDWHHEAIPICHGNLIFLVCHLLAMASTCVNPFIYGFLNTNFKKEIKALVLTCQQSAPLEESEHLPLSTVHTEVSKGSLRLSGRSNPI
# Test: cell-based or functional assay
"agonist potency (inositol phosphate turnover, transfected COS-7 cells): fold greater at Y4 than at Y1 receptor","agonist potency (inositol phosphate turnover, transfected COS-7 cells): fold greater at Y4 than at Y2 receptor",Binder
≥ 200 fold,≥ 1000 fold,B1
≥ 200 fold,≥ 1000 fold,B2
≥ 200 fold,≥ 1000 fold,B3
≥ 200 fold,≥ 1000 fold,B4
≥ 200 fold,≥ 1000 fold,B5
≥ 200 fold,≥ 1000 fold,B6
≥ 200 fold,≥ 1000 fold,B7
≥ 200 fold,≥ 1000 fold,B8
≥ 200 fold,≥ 1000 fold,B9
≥ 200 fold,≥ 1000 fold,B10
≥ 200 fold,≥ 1000 fold,B11
≥ 200 fold,≥ 1000 fold,B12
≥ 200 fold,≥ 1000 fold,B13
≥ 200 fold,≥ 1000 fold,B14
≥ 200 fold,≥ 1000 fold,B15
≥ 200 fold,≥ 1000 fold,B16

"agonist potency (inositol phosphate turnover, transfected COS-7 cells): fold greater at Y4 than at Y1 receptor","agonist potency (inositol phosphate turnover, transfected COS-7 cells): fold greater at Y4 than at Y2 receptor",Binder
≥ 200 fold,≥ 1000 fold,B17
≥ 200 fold,≥ 1000 fold,B18
≥ 200 fold,≥ 1000 fold,B19
≥ 200 fold,≥ 1000 fold,B20
≥ 200 fold,≥ 1000 fold,B21
≥ 200 fold,≥ 1000 fold,B22
≥ 200 fold,≥ 1000 fold,B23
≥ 200 fold,≥ 1000 fold,B24
≥ 200 fold,≥ 1000 fold,B25
≥ 200 fold,≥ 1000 fold,B26
≥ 200 fold,≥ 1000 fold,B27
≥ 200 fold,≥ 1000 fold,B28
≥ 200 fold,≥ 1000 fold,B29
≥ 200 fold,≥ 1000 fold,B30
≥ 200 fold,≥ 1000 fold,B31
≥ 200 fold,≥ 1000 fold,B32
